Usually Kd stands for a measure of binding affinity in units of concentration. Broadly, the EC50 (read off the curve) is the concentration giving half of the maximal effect.

Changes are numbered by the printed parent chain.

Consider 14 molecules from patent US20240327535A1 (EISAI R AND D MANAGEMENT, published 2024).

T1: human BCMA on NCI-H929, OPM2 and Raji cells (human, UniProt Q02223 1-184)
T1 construct: endogenous BCMA of human cell lines; also called TNFRSF17; CD269
T1 chain: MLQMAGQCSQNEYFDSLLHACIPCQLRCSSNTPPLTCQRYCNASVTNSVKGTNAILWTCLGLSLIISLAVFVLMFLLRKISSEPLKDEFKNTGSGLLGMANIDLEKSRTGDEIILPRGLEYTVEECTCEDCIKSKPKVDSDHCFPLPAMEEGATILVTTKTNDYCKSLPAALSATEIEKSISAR

T2: extracellular domain of human BCMA (human, UniProt Q02223 1-54)
T2 construct: amine-linked to Octet AR2G tips; also called hsBCMA; BCMA (human)
T2 sequence: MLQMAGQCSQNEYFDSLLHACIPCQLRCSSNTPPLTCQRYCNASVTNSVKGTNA

B1: AB212-ADL1-D2-02 (antibody, human IgG1, kappa, V domains shown)
VH: QVQLVQSGAEVKKPGSSVKVSCKASGGTFSNYWIHWVRQAPGQGLEWMGGTYRSHSDTNYNQKFKSRVTITADKSTSTAYMELSSLRSEDTAVYYCARGAIYHGYDVIENWGQGTLVTVSS
VL: DIQMTQSPSSLSASVGDRVTITCRASQSISSYLNWYQQKPGKAPKLLIYATSNLQIGVPSRFSGSGSGTDFTLTISSLQPEDFATYYCQQFRRLPWTFGQGTKLEIKR
modifications: ADL1-D2 linker-payload on cysteine residues of the antibody, DAR 5.17
B2: AB200-ADL1-D2-02 (antibody, human IgG1, kappa, V domains shown)
VH: B1 VH with I34M, G50A, S54G, N59Y, S66G, H103D, I108L, E109D
VL: B1 VL with R24S, S28D, S31N, A50Y, Q55H, I56S, F91Y, R93K
modifications: ADL1-D2 linker-payload on cysteine residues of the antibody, DAR 3.92
notes: antibody-drug conjugate; also called AB200 ADC incorporating the ADL1-D2 linker-payload
B3: AB200-ADL1-D12-05 (antibody, human IgG1, kappa, V domains shown)
VH: B1 VH with I34M, G50A, S54G, N59Y, S66G, H103D, I108L, E109D
VL: B1 VL with R24S, S28D, S31N, A50Y, Q55H, I56S, F91Y, R93K
modifications: ADL1-D12 linker-payload on cysteine residues of the antibody, DAR 4.24
notes: antibody-drug conjugate
B4: AB213-ADL1-D2-02 (antibody, human IgG1, kappa, V domains shown)
VH: B1 VH with S30T, D57T, N59Y, I101V, E109D
VL: B1 VL
modifications: ADL1-D2 linker-payload on cysteine residues of the antibody, DAR 4.18
B5: AB216-ADL1-D2-02 (antibody, human IgG1, kappa, V domains shown)
VH: B1 VH with G50A, S54I, H55Q, N59Y, F64Y, I101V, E109D
VL: B1 VL with L33I, F91Y, T97S
modifications: ADL1-D2 linker-payload on cysteine residues of the antibody, DAR 3.8
B6: AB218-ADL1-D2-02 (antibody, human IgG1, kappa, V domains shown)
VH: B1 VH with G50A, H55Q, D57T, N59Y, I101V, E109D
VL: B1 VL
modifications: ADL1-D2 linker-payload on cysteine residues of the antibody, DAR 3.77
B7: AB215-ADL1-D2-02 (antibody, human IgG1, kappa, V domains shown)
VH: B1 VH with S30T, D57T, N59Y, I101V, E109D
VL: B1 VL with F91Y, L94I
modifications: ADL1-D2 linker-payload on cysteine residues of the antibody, DAR 3.96
B8: AB200-(2Vk44)_R2-VH-v61 (Fab, V domains shown)
VH: B1 VH with S54I, N59Y, F64Y
VL: B1 VL with L33I, F91Y, T97S
B9: AB200-(2Vk44)_R2-VH-v64 (Fab, V domains shown)
VH: B1 VH with G50A, S54I, D57T, N59Y, N61A, Y105F, E109D
VL: B1 VL with L33I, F91Y, T97S
B10: AB200-(2Vk44)_R2-VH-v58 (Fab, V domains shown)
VH: B1 VH with S54I, Y105F, E109D
VL: B1 VL with L33I, F91Y, T97S
B11: AB200-(2Vk44)_R2-VH-v60 (Fab, V domains shown)
VH: B1 VH with S54I, H55Q, N59Y
VL: B1 VL with L33I, F91Y, T97S
B12: AB200-(2Vk44)_R2-VH-v68 (Fab, V domains shown)
VH: B1 VH with G50A, S54I, N61A, K74E, Y105F, E109D
VL: B1 VL with L33I, F91Y, T97S
B13: AB200-(2Vk44)_R2-VH-v70 (Fab, V domains shown)
VH: B1 VH with G50A, S54I, F64Y, I101V, E109D
VL: B1 VL with L33I, F91Y, T97S
B14: AB200-(2Vk44)_R2-VH-v72 (Fab, V domains shown)
VH: B1 VH with G50A, S54I, H55Q, N59Y, N61A, I101V, E109D
VL: B1 VL with L33I, F91Y, T97S

The target of the first experiment is T1, human BCMA on NCI-H929, OPM2 and Raji …. Nature of the experiment: flow cytometry, NCI-H929 cells. On the technique in general: In flow cytometry, cells or beads pass a laser one at a time.
B1 came in with a Kd of 1.3 nM.

Regarding B2, the Kd was 9.66 nM.

In turn, B3 returned a dissociation constant (Kd) of 9.7 nM.

Take B4: the Kd stood at 0.5 nM.

Take B5: the affinity, expressed as Kd, was 0.836 nM.

As for B6, binding was characterised by a dissociation constant (Kd) of 0.333 nM.

In turn, B7 returned a dissociation constant Kd of 1.3 nM.

A further experiment shares this target. In words: flow cytometry on NCI-H929 cells (BCMA high), fluorescent anti-human IgG1 secondary antibody, MFI against test article concentration.
In the case of B2, the concentration giving a half-maximal response (EC50 (read off the curve)) was about 9 nM.

For the molecule B3, the half-maximal effective concentration (EC50 (read off the curve)) was about 9 nM.

As for B4, the half-maximal effective concentration (EC50 (read off the curve)) was about 0.6 nM.

On to B5, for which the concentration for a half-maximal effect (EC50 (read off the curve)) was about 0.7 nM.

For the molecule B7, the half-maximal effective concentration (EC50 (read off the curve)) is about 1 nM.

In the next experiment the target is T3, extracellular domain of rhesus monkey BCMA (rhesus monkey, UniProt F7FFA0 1-53).
T3 construct: extracellular domain; also called RhBCMA
T3 sequence (F7FFA0 entry or part of it): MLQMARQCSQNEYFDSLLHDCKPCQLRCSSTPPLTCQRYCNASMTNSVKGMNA
In words: Octet BLI; Fab 200 nM. On the technique in general: BLI is a label-free optical method that tracks binding on a fibre tip over time.
In turn, B8 came in with an equilibrium dissociation constant (Kd) of 59.6 nM.

B9 came in with a Kd of 36.5 nM.

B10 yielded a Kd of 52.6 nM.

B11 had an equilibrium dissociation constant (Kd) of 38.6 nM.

Molecule B12 showed a Kd of 110 nM.

B13 returned a dissociation constant Kd of 35.8 nM.

Take B14: binding was put at a Kd of 12.4 nM.

The target in another experiment is T2, extracellular domain of human BCMA. In words: Octet BLI; Fab 200 nM.
B8: the dissociation constant (Kd) was found to be 19.2 nM.

In turn, B9 gave a Kd of 22.1 nM.

B10 showed a Kd of 27.2 nM.

The molecule B11 gave a Kd of 11.1 nM.

Take B12: the dissociation constant Kd amounted to 60.3 nM.

Molecule B13 registered an equilibrium dissociation constant (Kd) of 12.4 nM.

Molecule B14 displayed a Kd of 2.16 nM.

The next experiment addresses T1, human BCMA on NCI-H929, OPM2 and Raji …. In words: cell-based or functional assay.
On to B5, for which the “GI50 (nM) OPM2.1, cell viability” value is 1.56 nM and the “LD50 (nM) OPM2.1, cell viability” value worked out at 14 nM.

On to B6, for which the “GI50 (nM) OPM2.1, cell viability” value came to 0.985 nM and the “LD50 (nM) OPM2.1, cell viability” value amounted to 19.8 nM.

With B7, the “GI50 (nM) OPM2.1, cell viability” value turned out to be 4.04 nM and the “LD50 (nM) OPM2.1, cell viability” value is 73.7 nM.
